Laboratory results from US20210206881A1 (Amgen, published 2021).

T1: human B7RP1-Fc fusion protein (human, UniProt O75144 19-256, limits assumed)
T1 sequence (looked up): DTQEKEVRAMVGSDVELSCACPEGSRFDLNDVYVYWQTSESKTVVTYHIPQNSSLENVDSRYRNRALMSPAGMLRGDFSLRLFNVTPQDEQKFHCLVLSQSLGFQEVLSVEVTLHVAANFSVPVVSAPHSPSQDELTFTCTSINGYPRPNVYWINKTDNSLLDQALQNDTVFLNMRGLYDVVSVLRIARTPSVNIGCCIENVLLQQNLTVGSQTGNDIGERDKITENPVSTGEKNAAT

T2: human B7-related protein 1 (B7RP1) (human, UniProt O75144 19-256, limits assumed)
T2 construct: also called human B7RP1; ICOSLG
T2 sequence (looked up): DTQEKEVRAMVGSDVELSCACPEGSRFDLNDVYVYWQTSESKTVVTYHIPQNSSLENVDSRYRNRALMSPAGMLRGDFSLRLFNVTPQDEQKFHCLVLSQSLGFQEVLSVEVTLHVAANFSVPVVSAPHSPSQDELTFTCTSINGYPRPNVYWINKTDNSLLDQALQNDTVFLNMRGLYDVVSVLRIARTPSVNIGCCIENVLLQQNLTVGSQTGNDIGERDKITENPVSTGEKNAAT

T3: cynomolgus monkey B7RP1 (cynomolgus monkey, UniProt A0A2K5TK64 19-256)
T3 sequence: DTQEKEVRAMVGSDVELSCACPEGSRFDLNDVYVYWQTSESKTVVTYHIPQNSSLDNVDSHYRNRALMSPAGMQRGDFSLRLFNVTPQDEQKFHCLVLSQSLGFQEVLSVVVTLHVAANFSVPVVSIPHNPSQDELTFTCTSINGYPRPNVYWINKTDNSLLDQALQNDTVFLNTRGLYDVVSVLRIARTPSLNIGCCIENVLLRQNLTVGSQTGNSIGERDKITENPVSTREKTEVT


Legend:
[1] = target: T1, human B7RP1-Fc fusion protein; assay: cell-based or functional assay
[2] = target: B7RP1 used in the cynomolgus monkey T cell proliferation assay; assay: cell-based or functional assay
[3] = target: T4, human B-cell activating factor (BAFF) (human, UniProt Q9Y275 134-285); assay: cell-based or functional assay
[4] = target: BAFF used in the cynomolgus monkey B cell proliferation assay; assay: cell-based or functional assay
[5] = target: T2, human B7-related protein 1 (B7RP1); assay: KinExA (Kinetic Exclusion Assay)
Experimental: (§1) The binding affinities of the heterodimeric bispecific antibodies P74293 and P74294 to BAFF and B7RP1 were measured by Kinetic Exclusion Assay (KinExA®; Sapidyne Instruments, Boise, Id.). […] In addition, both of these bispecifics have similar binding affinities to cynomolgus monkey BAFF compared to human BAFF and to cynomolgus monkey B7RP1 compared to human B7RP1.

cynomolgus monkey BAFF = cynomolgus monkey BAFF (cynomolgus monkey, UniProt A0A2K5V2X4 134-285); assay: KinExA (Kinetic Exclusion Assay)
Experimental: as §1

[6] = target: T4, human B-cell activating factor (BAFF); assay: KinExA (Kinetic Exclusion Assay)
Experimental: as §1

cynomolgus monkey B7RP1 = target: T3, cynomolgus monkey B7RP1; assay: KinExA (Kinetic Exclusion Assay)
Experimental: as §1

Row | IC50 (nM) for inhibition of B7RP1-mediated human T cell proliferation [1] [nM] | IC50 (nM) for inhibition of B7RP1-mediated cynomolgus monkey T cell proliferation [2] [nM] | IC50 (nM) for inhibition of BAFF-mediated human B cell proliferation [3] [nM] | IC50 (nM) for inhibition of BAFF-mediated cynomolgus monkey B cell proliferation [4] [nM] | Kd [5] [nM] | Kd (cynomolgus monkey BAFF) [nM] | Kd [6] [nM] | Kd (cynomolgus monkey B7RP1) [nM] | Binder
1 | 1.36 | 0.29 | 0.86 | 1.6 | 0.038 | 0.0223 | 0.029 | 0.0494 | P74293 BAFF/B7RP1 bispecific molecule (bispecific antibody, human IgG2, kappa, also called anti-BAFF/B7RP1 bispecific P74293) heavy: EVQLVESGGGLVQPGGSLRLSCAASGFTFSSYWMSWVRQAPGKGLEWVAYIKQDGNEKYYVDSVKGRFTISRDNAKNSLYLQMNSLRAEDTAVYYCAREGILWFGDLPTFWGQGTLVTVSSASTKGPSVFPLAPCSRSTSESTAALGCLVKDYFPEPVTVSWNSGALTSGVHTFPAVLQSSGLYSLSSVVTVPSSNFGTQTYTCNVDHKPSNTKVDKTVERKCCVECPPCPAPPVAGPSVFLFPPKPKDTLMISRTPEVTCVVVDVSHEDPEVQFNWYVDGVEVHNAKTKPREEQFNSTFRVVSVLTVVHQDWLNGKEYKCKVSNKGLPAPIEKTISKTKGQPREPQVYTLPPSREEMTKNQVSLTCLVKGFYPSDIAVEWESNGQPENNYKTTPPMLDSDGSFFLYSKLTVDKSRWQQGNVFSCSVMHEALHNHYTQKSLSLSPGKGGGGGLPGCKWDLLIKQWVCDPLGSGSATGGSGSVASSGSGSATHLLPGCKWDLLIKQWVCDPL light: not shown
2 | 0.98 | – | 0.96 | 1.8 | 0.041 | 0.0174 | 0.037 | 0.0452 | P74294 BAFF/B7RP1 bispecific molecule (bispecific antibody, human IgG2, kappa, variant of P71619 with a modified linker) heavy: EVQLVESGGGLVQPGGSLRLSCAASGFTFSSYWMSWVRQAPGKGLEWVAYIKQDGNEKYYVDSVKGRFTISRDNAKNSLYLQMNSLRAEDTAVYYCAREGILWFGDLPTFWGQGTLVTVSSASTKGPSVFPLAPCSRSTSESTAALGCLVKDYFPEPVTVSWNSGALTSGVHTFPAVLQSSGLYSLSSVVTVPSSNFGTQTYTCNVDHKPSNTKVDKTVERKCCVECPPCPAPPVAGPSVFLFPPKPKDTLMISRTPEVTCVVVDVSHEDPEVQFNWYVDGVEVHNAKTKPREEQFNSTFRVVSVLTVVHQDWLNGKEYKCKVSNKGLPAPIEKTISKTKGQPREPQVYTLPPSREEMTKNQVSLTCLVKGFYPSDIAVEWESNGQPENNYKTTPPMLDSDGSFFLYSKLTVDKSRWQQGNVFSCSVMHEALHNHYTQKSLSLSPGKGGGGGLPGCKWDLLIKQWVCDPLGSGSATGGSGSSASSGSGSATHLLPGCKWDLLIKQWVCDPL light: not shown
